Results on 19 molecules are retold here after patent US7101851 (dated 2006).

For test [1], the target named is T1, FcεRI-IgG (UniProt P12319 26-205).
T1 construct: extracellular domain; Produced from CHO cells (Genentech); also called FcεRI-Fc; bivalent fusion protein of the extracellular domain of FcεRI and the Fc domain of IgG; not shown: Fc domain of IgG
T1 sequence (looked up): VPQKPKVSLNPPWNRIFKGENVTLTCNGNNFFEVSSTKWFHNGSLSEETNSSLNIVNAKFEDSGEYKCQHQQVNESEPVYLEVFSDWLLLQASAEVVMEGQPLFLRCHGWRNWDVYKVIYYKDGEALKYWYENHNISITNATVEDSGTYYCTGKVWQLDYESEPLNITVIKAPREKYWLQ
Briefly: competitive phage ELISA: g3 peptide-phage on immobilized FcεRI-IgG, soluble FcεRI-IgG titrated. The source says:
(§1) Peptide sequences from g8p-fused phage clones that specifically bound FcεRI-IgG were transferred onto a g3p-display format for monovalent phage display (Bass et al., *Proteins* 8, 309–314 (1990); Lowman et al., *Biochemistry* 30, 10832–10838 (1991)). An oligonucleotide encoding for each desired peptide with additional 5' and 3' base pair that overlapped with g3 was synthesized. This oligonucleotide was annealed with a g3 single stranded DNA phagemid template. The mutagenesis reaction was transformed into XL-1 Blue *E. coli* and plated on LB-carb+ agar plates. Individual colonies were propagated in 5 mL of 2YT broth, tetracycline, carbenicillin and VCSM13 helper phage (Stratagene). Single stranded DNA was isolated from the purified phage particles and sequenced to confirm the insertion of the phage peptide sequence. 25 mL preparations of g3 phage clones were propagated overnight and purified by PEG precipitation. After resuspension of the phage pellet in 1.0 mL of PBS, it was serially diluted 1/3 and incubated with immobilized FcεRI-IgG 2 ug/mL in a 96 well Maxisorp microtiter plate for 1 hour at room temperature. The wells were washed 10× with PBST then incubated with 100 uL of anti M13 phage HRP as described above. An OD(492) value corresponding to less than 50% binding was selected and the purified phage clones were diluted to yield this normalized level of signal. […] The mixture was then transferred to 96 well microtiter dishes containing immobilized FcεRI-IgG. After a 1-hour incubation period, the plates were washed 10 times, incubated with anti M13-HRP conjugated antibody and developed with OPD as described above.

Test [2] addresses T1, FcεRI-IgG. Briefly: g3 phage ELISA on immobilized FcεRI-IgG. On the technique in general: An ELISA detects its analyte on a solid surface through an enzyme-linked reagent.
Test [3] has as its target T2, alpha subunit of the human FcεRI receptor expressed on cells (human, UniProt P12319 26-257).
T2 construct: whole, on cells; on rat basophil RBL-48 cells in the histamine release assay; also called CHO FcεRI+ cells; cell surface expressed FcεRI
T2 sequence (looked up): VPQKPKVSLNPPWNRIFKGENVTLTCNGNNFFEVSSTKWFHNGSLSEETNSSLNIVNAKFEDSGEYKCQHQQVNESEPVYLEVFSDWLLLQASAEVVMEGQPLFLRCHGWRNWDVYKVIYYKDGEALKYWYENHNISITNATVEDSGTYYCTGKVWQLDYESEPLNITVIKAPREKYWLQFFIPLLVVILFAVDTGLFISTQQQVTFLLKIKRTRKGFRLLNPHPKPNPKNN
Briefly: IgE inhibition assay (Table 9).

The target of test [4] is T1, FcεRI-IgG. Briefly: competitive phage ELISA; relative to g3c.42. As for the experimental part: as §1, with “This” for “Peptide sequences from g8p-fused phage clones that specifically bound FcεRI-IgG were transferred onto a g3p-display format for monovalent phage display (Bass et al., *Proteins* 8, 309–314 (1990); Lowman et al., *Biochemistry* 30, 10832–10838 (1991)). An oligonucleotide encoding for each desired peptide with additional 5' and 3' base pair that overlapped with g3 was synthesized. This”
(§2) In addition, stepwise N-terminal and C-terminal truncations of the peptide sequence were constructed. All constructs were made by designing oligonucleotides corresponding to the desired substitution or truncation, with an additional 18 bp of DNA overlapping the peptide or g3 phage DNA sequence. The phage clones were propagated overnight following infection in XL-1 Blue *E. coli*. Purified phage preparations were titered and assayed for binding to immobilized receptor. FcεRI-IgG competition assays were performed as described above.

The target of test [5] is T1, FcεRI-IgG. Briefly: competitive phage ELISA: g3 peptide-phage on immobilized FcεRI-IgG, soluble FcεRI-IgG titrated. As to the method:
as §1, with “This” for “Peptide sequences from g8p-fused phage clones that specifically bound FcεRI-IgG were transferred onto a g3p-display format for monovalent phage display (Bass et al., *Proteins* 8, 309–314 (1990); Lowman et al., *Biochemistry* 30, 10832–10838 (1991)). An oligonucleotide encoding for each desired peptide with additional 5' and 3' base pair that overlapped with g3 was synthesized. This”
as §2
This is another data set of the same source.

In test [6] the target is T2, alpha subunit of the human FcεRI …. The test can be described thus: cell-based or functional assay.
Test [7] shares this target. Briefly: inhibition of 125I-IgE binding to CHO cells expressing human FcεRI alpha. As for the experimental part:
To determine the ability of peptides to inhibit IgE binding to FcεRI, a cell-based binding assay was used with radiolabeled IgE. Chinese hamster ovary cells expressing the alpha subunit of the human FcεRI receptor were cultured overnight in Falcon 96 well microtiter plates at a concentration of 5 ×10^4 cells per well. The following day the cells were rinsed three times with PBS and then once with F12/DMEM. Peptide stocks were reconstituted in 100 mM Hepes buffered water, pH 7.2, at a concentration of 5 mg/mL. Working concentrations of the peptide were diluted in assay buffer (see below). 75 uL of a desired concentration of peptide was added to the top row of a separate 96 well microtiter plate and serially diluted 1:3 in 50 uL of the assay buffer (F12/DMEM, 1% BSA, 0.05% NaN_3 and 0.025 mM Hepes pH 7.2). Starting concentrations ranged from 50–500 uM. Next, 50 uL of the diluted peptide was transferred to the 96 microtiter well plate containing a monolayer of CHO FcεRI+ cells. […] Cells were
Alanine substitutions in IGE063 (SEQ ID NO:49) were used to assess sidechain contributions. The P9A (IGE070, SEQ ID NO:52) substitution had the largest impact with a >500× reduction in binding. […] Clearly the alanine substitutions at G8, P9, W10, G11 and W12 all had major impacts on binding FcεRI.

For test [8], the target named is alpha subunit of the human FcεRI receptor expressed on cells (human) (UniProt P12319). The test can be described thus: IgE inhibition assay (Table 9).

For orientation: IC50 means the concentration that inhibits the measured activity by half.

Where two headings read alike, the source gives them in different places. Bridges are numbered along the chain shown (N, C = ends). Where no end group is shown, it is not given here.

B1: g3b.4 peptide-phage (peptide)
peptide: VMPTCTEGPWGWVCMAAD
modifications: not fully specified (bridges); cysteine pairing not given here
notes: not shown: fused to M13 gene-3 protein (g3p) on phage
The molecule B1 came in with a half-inhibitory concentration (IC50) in test [1] of 0.007 µM.

B2: g3c.21 peptide-phage (peptide)
peptide: CTEGPWGWVCMAAD
modifications: not fully specified; cysteine pairing not given here
notes: Monovalent g3p phage display; not shown: fused to M13 gene-3 protein (g3p) on phage
Regarding B2, the binding result in test [2] was “no binding”.

B3: IGE150 (peptide)
peptide: VQCPHFCYVGGKALCPDVCDV-NH2
modifications: disulfide (positions not given here); also: two intramolecular disulfide bonds, pairing not given here
notes: Y20D of IGE122
On to B3, for which the “fold loss in activity” value in test [3] is approximately 5 fold.

B4: g3c.31 peptide-phage (peptide)
peptide: NLPRCTEGPWGWVCMA
modifications: not fully specified (bridges); cysteine pairing not given here
notes: as for B2
For the molecule B4, the “Relative (IC50) (fold weaker)” value in test [4] was 1 fold. Besides, the half-inhibitory concentration (IC50) in test [5] came to 0.0061 µM.

B5: g3b.5 peptide-phage (peptide)
peptide: AMAQCTEGPWGWVCMAAD
modifications: not fully specified; cysteine pairing not given here
notes: as for B1
Molecule B5 registered an IC50 in test [1] of 0.01 µM.

B6: g3b.1 peptide-phage (peptide)
peptide: NLPRCTEGPWGWVCMAAD
modifications: disulfide 5-14 (inferred); not fully specified
notes: as for B1
B6 had an IC50 in test [1] of 0.013 µM.

B7: g3b.3 peptide-phage (peptide)
peptide: NLPTCTEGPWGWVCMAAD
modifications: not fully specified (bridges); cysteine pairing not given here
notes: as for B1
Molecule B7 showed an IC50 in test [1] of 0.007 µM.

B8: g3b.8 peptide-phage (peptide)
peptide: GRTECTEGPWGWVCMAAD
modifications: not fully specified (bridges); cysteine pairing not given here
notes: as for B1
With B8, the IC50 in test [1] was found to be 0.014 µM.
As for ALCPAVCYV-NH2 (also: antiparallel disulfide-linked homodimer, interchain C3-C7' and C7-C3') [IGE089], in test [6], the “IC50 of inhibition of ragweed induced histamine release (RBL-48 cells, 0.1 nM ragweed specific human IgE)” value is 8 µM.

B9: g3c.1 peptide-phage (peptide)
peptide: LPRCTEGPWGWVCMAAD
modifications: not fully specified; cysteine pairing not given here
notes: as for B2
As to B9, in test [4], the “Relative (IC50) (fold weaker)” value is 1 fold. The IC50 in test [5] amounted to 0.003 µM.

B10: g3c.29 peptide-phage (peptide)
peptide: NLPRCTEGPWGWVCMAA
modifications: not fully specified (bridges); cysteine pairing not given here
notes: as for B2
On to B10, for which, in test [4], the “Relative (IC50) (fold weaker)” value was determined as 1 fold. In addition, the IC50 in test [5] turned out to be 0.005 µM.

B11: g3b.6 peptide-phage (peptide)
peptide: GRAQCTEGPWGWVCMAAD
modifications: not fully specified (bridges); cysteine pairing not given here
notes: as for B1
In test [1], B11 showed an IC50 of 0.016 µM.
On to NLPRCTEGPWGWVCMAAD (disulfide 5-14 (inferred), also called optimized peptide) [synthetic peptide NLPRCTEGPWGWVCMAAD (SEQ ID NO:18)], for which the “IC50 of inhibition of ragweed induced histamine release (RBL-48 cells, ragweed specific IgE)” value in test [6] stood at 10 µM. Also, in test [7], the IC50 is 1 µM, the “fold improvement over the … (SEQ ID NO:1) peptide” value is more than 160 fold and the “fold improvement over the … (SEQ ID NO:8) peptide” value amounted to 40 fold.
As for NLPRCTEGPWGWVCM (disulfide 5-14 (inferred)) [peptide NLPRCTEGPWGWVCM (SEQ ID NO:27)], the “IC50 of inhibition of ragweed induced histamine release (RBL-48 cells, ragweed specific IgE)” value in test [6] is 13 µM.

B12: g3c.34 peptide-phage (peptide)
peptide: NLPRCTEGPWGWVCM
modifications: not fully specified; cysteine pairing not given here
notes: as for B1
B12: the “Relative (IC50) (fold weaker)” value in test [4] stood at 3 fold. Besides, the IC50 in test [5] came out at 0.0146 µM.

B13: IGE142 (peptide)
peptide: VQCAHFCYVGGHALCPDVCYVGR
modifications: disulfide (positions not given here); also: two intramolecular disulfide bonds, pairing not given here
notes: P4A of IGE132; made in E. coli as a Z-domain fusion and cleaved with trypsin
Turning to B13, in test [3], the “fold reduced activity against its control peptide” value was more than 100 fold.

B14: g3b.7 peptide-phage (peptide)
peptide: DLPACTEGPWGWVCMAAD
modifications: not fully specified; cysteine pairing not given here
notes: as for B1
Consider B14, for which, in test [1], the 50% inhibitory concentration (IC50) was 0.009 µM.

B15: g3c.17 peptide-phage (peptide)
peptide: RCTEGPWGWVCMAAD
modifications: not fully specified; cysteine pairing not given here
notes: as for B2
On to B15, for which the binding result in test [2] was “no binding”.

B16: IGE143 (peptide)
peptide: VQCPHFCYVGGHALCADVCYVGR
modifications: disulfide (positions not given here); also: two intramolecular disulfide bonds, pairing not given here
B16: the fold loss in activity against its control peptide in test [8] was more than 100 fold.
